The values that follow come from publication PMC7174398 (Nature Communications, 2020).

Data set [1] concerns the molecule itself. As to the kind of experiment: SEC-MALS; mHsp60 with mHsp10, pre-incubated with 1 mM ATP for 5 min; Superose-6, ~25 C. (In gel filtration, larger molecules generally elute earlier.)
Data set [2] deals with the molecule itself. Nature of the data set: SEC-MALS; mHsp60 (WT or variant) with mHsp10, pre-incubated with 1 mM ATP, 1 mM BeCl2 and 10 mM NaF for 5 min; Superose-6, ~25 C.

B1: wild-type human mitochondrial Hsp60 (mHsp60) (natural protein)
chain: GSAKDVKFGADARALMLQGVDLLADAVAVTMGPKGRTVIIEQSWGSPKVTKDGVTVAKSIDLKDKYKNIGAKLVQDVANNTNEEAGDGTTTATVLARSIAKEGFEKISKGANPVEIRRGVMLAVDAVIAELKKQSKPVTTPEEIAQVATISANGDKEIGNIISDAMKKVGRKGVITVKDGKTLNDELEIIEGMKFDRGYISPYFINTSKGQKCEFQDAYVLLSEKKISSIQSIVPALEIANAHRKPLVIIAEDVDGEALSTLVLNRLKVGLQVVAVKAPGFGDNRKNQLKDMAIATGGAVFGEEGLTLNLEDVQPHDLGKVGEVIVTKDDAMLLKGKGDKAQIEKRIQEIIEQLDVTTSEYEKEKLNERLAKLSDGVAVLKVGGTSDVEVNEKKDRVTDALNATRAAVEEGIVLGGGCALLRCIPALDSLTPANEDQKIGIEIIKRTLKIPAMTIAKNAGVEGSLIVEKIMQSSSEVGYDAMAGDFVNMVEKGIIDPTKVVRTALLDAAGVASLLTTAEVVVTEIPKEEKDPGMGAMGGMGGGMGGGMF
notes: residues left at the N-terminus after TEV cleavage and removal of the HisTag; human mitochondrial Hsp60 (mt-cpn60); Oligomeric state depends on nucleotide and concentration: monomers, heptameric single rings, tetradecameric double rings; also called WT mHsp60; mt-cpn60; source: E. coli Rosetta, purified (nickel-agarose, TEV cleavage, anion exchange, oligomerised with ATP, Superdex 200); not …
As for B1, the stoichiometry N – broadly, a count of units in the complex or per binding partner – stood at 7 in data set [1] and 14 in data set [2].
